Measurements as given in article PMC11257983 (2024).

B1: Flag-CNK^2–549 [Drosophila] / GST-HYP [Drosophila] (parent complex)
chain 1: AYINIAEWTPDQVTDWIKGLDESMKGYLYEFSKQEIGGRALLNIRPYELENLGMLRIGHQEIVLEAVENLRNFHYHLKNDNLQFMALHVATAAKNLHRELARNHAESTKIDTRILHDITRTIATLKPLVGSLERTPFRKQEMYREYCGNVLKCGLELATIAHRDRFALQPVPAIRQSAERLENLANFVIQDISDPMVLQPASLNLVTLKKRESELGFNIESSYNGIHRVTDIKYNSPAHNSGKIEDGDEIVQINYQTVVGWQHRTVLEHLREALPDVVLTVKKRPKHTKMFGQIYMQPYRLPSKKRNMAARWAAQMPSPRAAFLTLDTEQLATGGTGSAVPDPSKSLSSEKREVLTKANPVSSASDSDSSCSDIPTPTDPKLAAREIRLYYPKPRALLQRRNTICGCEYLSLKNSDLVVPSWHERKPGIGSPTNCDPGSPSIRDKSISFGYGLEMAARPTTCIGIAGDTSTDKARRMFHEARKLKQLTEDSQREFLVDRYKPGVSKVVRFDAKEDYVMKNEKFICNVENTILETFEPIPFADEGDEDA
chain 2: MGEETINSTQNKTRTKTTRPKAVYLWTVSDVLKWYRRHCGEYTQYEQLFAQHDITGRALLRITDSSLQRMGVTDNRDREAIWREIVKQRLKTDIMEIRDMERLNIY

Variants of: B1
Assay: GST pull-down, immunoblot quantification; S2 cells; GST-HYP + RRKM co-expressed; anti-Flag (CNK) blot; parent: 1

ratio to parent | Variant
0.61 | chain 1 AYINIAEWTPDQVTDWIKGLDESMKGYLYEFSKQEIGGRALLNIRPYELENLGMLRIGHQEIVLEAVENLRNRHYHLKNDNLQFMALHVATAAKNLHRELARNHAESTKIDTRILHDITRTIATLKPLVGSLERTPFRKQEMYREYCGNVLKCGLELATIAHRDRFALQPVPAIRQSAERLENLANFVIQDISDPMVLQPASLNLVTLKKRESELGFNIESSYNGIHRVTDIKYNSPAHNSGKIEDGDEIRQINYQTVVGWQHRTVLEHLREALPDVVLTVKKRPKHTKMFGQIYMQPYRLPSKKRNMAARWAAQMPSPRAAFLTLDTEQLATGGTGSAVPDPSKSLSSEKREVLTKANPVSSASDSDSSCSDIPTPTDPKLAAREIRLYYPKPRALLQRRNTICGCEYLSLKNSDLVVPSWHERKPGIGSPTNCDPGSPSIRDKSISFGYGLEMAARPTTCIGIAGDTSTDKARRMFHEARKLKQLTEDSQREFLVDRYKPGVSKVVRFDAKEDYVMKNEKFICNVENTILETFEPIPFADEGDEDA [chain 1 F73R, chain 1 V251R]
0.22 | chain 1 AYINIAEWTPDQVTDWIKGLDESMKGYLYEFSKQEIGGRALLNIRPYELENLGMLRIGHQEIVLEAVENLRNRHYHLKNDNLQFMALHVATAAKNLHRELARNHAESTKIDTRILHDITRTIATLKPLVGSLERTPFRKQEMYREYCGNVLKCGLELATIAHRDRFALQPVPAIRQSAERLENLANFVIQDISDPMVLQPASLNLVTLKKRESELGFNIESSYNGIHRVTDIKYNSPAHNSGKIEDGDRIVQINYQTVVGWQHRTVLEHLREALPDVVLTVKKRPKHTKMFGQIYMQPYRLPSKKRNMAARWAAQMPSPRAAFLTLDTEQLATGGTGSAVPDPSKSLSSEKREVLTKANPVSSASDSDSSCSDIPTPTDPKLAAREIRLYYPKPRALLQRRNTICGCEYLSLKNSDLVVPSWHERKPGIGSPTNCDPGSPSIRDKSISFGYGLEMAARPTTCIGIAGDTSTDKARRMFHEARKLKQLTEDSQREFLVDRYKPGVSKVVRFDAKEDYVMKNEKFICNVENTILETFEPIPFADEGDEDA [chain 1 F73R, chain 1 E249R]
0.68 | chain 1 AYINIAEWTPDQVTDWIKGLDESMKGYLYEFSKQEIGGRALLNIRPYELENLGMLRIGHQEIVLEAVENLRNFHYHLKNDNLQFMALHVATAAKNLHRELARNHAESTKIDTRILHDITRTIATLKPLVGSLERTPFRKQEMYREYCGNVLKCGLELATIAHRDRFALQPVPAIRQSAERLENLANFVIQDISDPMVLQPASLNLVTLKKRESELGFNIESSYNGIHRVTDIKYNSPAHNSGKIEDGDEIRQINYQTVVGWQHRTVLEHLREALPDVVLTVKKRPKHTKMFGQIYMQPYRLPSKKRNMAARWAAQMPSPRAAFLTLDTEQLATGGTGSAVPDPSKSLSSEKREVLTKANPVSSASDSDSSCSDIPTPTDPKLAAREIRLYYPKPRALLQRRNTICGCEYLSLKNSDLVVPSWHERKPGIGSPTNCDPGSPSIRDKSISFGYGLEMAARPTTCIGIAGDTSTDKARRMFHEARKLKQLTEDSQREFLVDRYKPGVSKVVRFDAKEDYVMKNEKFICNVENTILETFEPIPFADEGDEDA [chain 1 V251R]

Variants of: B1
Assay: GST pull-down, immunoblot quantification; S2 cells; only Flag-CNK2–549 and GST-HYP co-expressed; anti-Flag blot; parent: 1

ratio to parent | Variant
0.04 | chain 1 AYINIAEWTPDQVTDWIKGLDESMKGYLYEFSKQEIGGRALLNIRPYELENLGMLRIGHQEIVLEAVENLRNRHYHLKNDNLQFMALHVATAAKNLHRELARNHAESTKIDTRILHDITRTIATLKPLVGSLERTPFRKQEMYREYCGNVLKCGLELATIAHRDRFALQPVPAIRQSAERLENLANFVIQDISDPMVLQPASLNLVTLKKRESELGFNIESSYNGIHRVTDIKYNSPAHNSGKIEDGDEIRQINYQTVVGWQHRTVLEHLREALPDVVLTVKKRPKHTKMFGQIYMQPYRLPSKKRNMAARWAAQMPSPRAAFLTLDTEQLATGGTGSAVPDPSKSLSSEKREVLTKANPVSSASDSDSSCSDIPTPTDPKLAAREIRLYYPKPRALLQRRNTICGCEYLSLKNSDLVVPSWHERKPGIGSPTNCDPGSPSIRDKSISFGYGLEMAARPTTCIGIAGDTSTDKARRMFHEARKLKQLTEDSQREFLVDRYKPGVSKVVRFDAKEDYVMKNEKFICNVENTILETFEPIPFADEGDEDA [chain 1 F73R, chain 1 V251R]
0.06 | chain 1 AYINIAEWTPDQVTDWIKGLDESMKGYLYEFSKQEIGGRALLNIRPYELENLGMLRIGHQEIVLEAVENLRNRHYHLKNDNLQFMALHVATAAKNLHRELARNHAESTKIDTRILHDITRTIATLKPLVGSLERTPFRKQEMYREYCGNVLKCGLELATIAHRDRFALQPVPAIRQSAERLENLANFVIQDISDPMVLQPASLNLVTLKKRESELGFNIESSYNGIHRVTDIKYNSPAHNSGKIEDGDRIVQINYQTVVGWQHRTVLEHLREALPDVVLTVKKRPKHTKMFGQIYMQPYRLPSKKRNMAARWAAQMPSPRAAFLTLDTEQLATGGTGSAVPDPSKSLSSEKREVLTKANPVSSASDSDSSCSDIPTPTDPKLAAREIRLYYPKPRALLQRRNTICGCEYLSLKNSDLVVPSWHERKPGIGSPTNCDPGSPSIRDKSISFGYGLEMAARPTTCIGIAGDTSTDKARRMFHEARKLKQLTEDSQREFLVDRYKPGVSKVVRFDAKEDYVMKNEKFICNVENTILETFEPIPFADEGDEDA [chain 1 F73R, chain 1 E249R]
0.07 | chain 1 AYINIAEWTPDQVTDWIKGLDESMKGYLYEFSKQEIGGRALLNIRPYELENLGMLRIGHQEIVLEAVENLRNFHYHLKNDNLQFMALHVATAAKNLHRELARNHAESTKIDTRILHDITRTIATLKPLVGSLERTPFRKQEMYREYCGNVLKCGLELATIAHRDRFALQPVPAIRQSAERLENLANFVIQDISDPMVLQPASLNLVTLKKRESELGFNIESSYNGIHRVTDIKYNSPAHNSGKIEDGDEIRQINYQTVVGWQHRTVLEHLREALPDVVLTVKKRPKHTKMFGQIYMQPYRLPSKKRNMAARWAAQMPSPRAAFLTLDTEQLATGGTGSAVPDPSKSLSSEKREVLTKANPVSSASDSDSSCSDIPTPTDPKLAAREIRLYYPKPRALLQRRNTICGCEYLSLKNSDLVVPSWHERKPGIGSPTNCDPGSPSIRDKSISFGYGLEMAARPTTCIGIAGDTSTDKARRMFHEARKLKQLTEDSQREFLVDRYKPGVSKVVRFDAKEDYVMKNEKFICNVENTILETFEPIPFADEGDEDA [chain 1 V251R]
